This note sets out measurements from patent US20230398228A1, “ERIBULIN-BASED ANTIBODY-DRUG CONJUGATES AND METHODS OF USE” (EISAI R&D MANAGEMENT CO., LTD., priority 2016, published 2023).

The term IC50 denotes the concentration needed to halve the response being measured.

The nature of data set [1]: SEC-HPLC aggregation analysis. In kind it is physicochemical. The protocol: The antibody aggregation was analyzed by size-exclusion, high-performance liquid chromatography (SEC-HPLC) using an Agilent 1100. The mAb was diluted to 1 mg/mL in DPBS. The antibody (20 μL) was injected onto a TSKgel® SuperSW guard column (4.6 mm×3.5 cm, 4 μm pore size, Tosoh Bioscience), followed by a TSKgel® SuperSW3000 column (4.6 mm×30 cm, 4 μm pore size), eluted from the column with 0.1 M sodium phosphate containing 0.15 M NaCl and 0.05% NaN3, at pH 7.4, at a flow rate of 0.3 mL/min for 20 min. All data were analyzed using Agilent ChemStation software. Percent aggregation was calculated as [PAaggregate/PAtotal]*100, where PA=integrated peak area.
ADC was diluted to 1 mg/mL in DPBS. ADC (10 μL) was then injected onto an Advanced SEC 300A guard column (4.6 mm×3.5 cm, 2.7 μm pore size, Agilent), followed by a AdvancedBio 300A column (4.6 mm×30 cm, 2.7 μm pore size). ADC was eluted from the column with 0.1 M sodium phosphate containing 0.15 M NaCl and 5% IPA, pH 7.4 at a flow rate of 0.25 mL/min for 28 min. All data were analyzed using Agilent ChemStation software. Percent aggregation was calculated as [PAaggregate/PAtotal]*100, where PA=integrated peak area.
On the technique in general: SEC sorts molecules by how far they enter the pores of the column.

The next data set in a line: DAR analysis by HIC-HPLC. The procedure: Samples were injected onto a TSKgel® Ether-5 PW, 7.5 mm ID×7.5 cm, 10 μM pore size, and eluted from the column with a 3 min equilibration in 100% of mobile phase A, a 15 min gradient (0-100% B), a 5 min hold in 100% B, a 1 min change to 100% A, and a 5 min re-equilibration in 100% of mobile phase A, at 0.7 mL/min. Mobile phase A was 25 mM sodium phosphate, 1.5 M ammonium sulfate, pH 7.0. Mobile phase B was 25 mM sodium phosphate, 25% isopropanol, pH 7.0. Detection was done at 280 nm (reference 320 nm). DAR was determined by the formula:
[AUC+1+2(AUC+2)+3(AUC+3)+ . . . n(AUC+n)]/ΣAUCtot]
where AUC+1 is the area under the curve for the mAb peak corresponding to ADC conjugated with one cytotoxin, AUC+2 is the area under the curve for the mAb peak corresponding to ADC conjugated with two cytotoxins, etc. ΣAUCtot is the combined area under the curve for all peaks.
DAR was analyzed using hydrophobic interaction HPLC (HIC-HPLC). Samples were injected onto a TSKgel® Butyl-NP5, 4.6 mm ID×3.5 cm, 2.5 μM nonporous size column (Tosoh Bioscience), and eluted with a 3 min equilibration in 100% of mobile phase A, a 15 min gradient (0-100% B), a 5 min hold in 100% B, a 1 min change to 100% A, and a 5 min re-equilibration in 100% of mobile phase A, at 0.7 mL/min. Mobile phase A was 25 mM sodium phosphate, 1.5 M ammonium sulfate, pH 7.0. […] DAR was determined by the formula: […]

In a further data set the test system is NCI-H2110 cells. The data set is described as follows: Crystal Violet cytotoxicity assay (Example 4), NCI-H2110. The class given is cell-based, human. The settings on record: mean of replicate experiments, read-out: Cytotoxicity IC50 (nM), NCI-H2110 (FR^med, MSLN^med). The procedure: Test reagents were serial diluted 1:3 in 2 mL deep-well dilution plates, starting at 200 nM (10 dilutions total). […] Medium was then discarded. […] Plates were read at 570 nm. Data was analyzed using GraphPad Prism 6.

A further data set has as its system CaOV3 cells. As to the kind of experiment: Crystal Violet cytotoxicity assay (Example 1), CaOV3. The class given is cell-based, human.
The subject of data set [2] is LXFA-737 NSCLC patient-derived xenograft. As to the kind of experiment: NSCLC PDx model LXFA-737. In kind it is in vivo, mouse. The settings on record: for Tumor Growth Inhibition: vehicle = 100. An excerpt:
Tumor implantation: NSCLC tumor fragments were obtained from LXFA-737 tumor xenografts serially passaged in nude mice. After removal from donor mice, tumors were cut into fragments (3-4 mm edge length) and placed in phosphate-buffered saline (PBS) containing 10% penicillin/streptomycin. Recipient animals were anesthetized by inhalation of isoflurane and received unilateral or bilateral tumor implants subcutaneously in the flank. Tumor xenografts were implanted with one or two tumors per mouse at a take rate <65%. In the case of a bilateral take, one of these tumors was explanted prior to randomization. Animals and tumor implants were monitored daily until solid tumor growth was detectable in a sufficient number of animals. At randomization, the volume of growing tumors was determined. […] Animals not used for experiments were euthanized.
Body weight was measured prior to dose on each dosing day, and two times per week during the study. At the end of the study, the terminal body weight was measured and recorded.

Data set [3] deals with OD-BRE-0631 TNBC patient-derived xenograft. To be noted: 5 mg/kg single dose, five days post-treatment.
Data set [4] deals with Endo-12961 endometrial cancer patient-derived xenograft. As to the kind of experiment: Endometrial cancer PDx model Endo-12961.
Procedure: Tumor fragments were implanted subcutaneously into the left flank of 40 NMRI nu/nu female mice, and tumor volume was monitored. Mice with a tumor volume of 100-160 mm^3 were randomized into one of four groups (Groups A-D, Table 39). […] Each group consisted of 8 animals. The day of randomization was designated as Day 0 of the experiment.
Tumor growth was evaluated by the measurement of two perpendicular diameters twice weekly, and tumor volume (TV), relative tumor volume (RTV) and treated/control (T/C) values were calculated. Body weight was also evaluated twice weekly as a parameter for toxicity, with the calculation of the body weight per group and body weight changes (BWC) relative to the start of treatment. Animals were sacrificed when the individual tumor volume exceeded 1 cm^3, or at the end of the study.
[5] abbreviates: 5 mg/kg single dose i.v., Day 21, n = 6.
The mark [6] stands for this setting: 5 mg/kg single dose i.v., Day 32, n = 6.
The mark [7] stands for this setting: 5 mg/kg single dose i.v., Day 74, n = 6.

Procedure for CaOV3 cells: Typically, test reagents were serial diluted 1:4 in 2 mL deep-well dilution plates, starting at 1 μM (10 dilutions total). 100 μL of diluted samples were added to the cell plates (starting concentration of test samples at 500 nM). […] Medium was discarded, plates were washed once with 200 μL DPBS, stained with 50 μL of 0.2% Crystal Violet solution at room temperature for 15 min, and then washed extensively with tap water. Plates were air-dried, and Crystal Violet was dissolved with 200 μL of 1% SDS solution. Plates were read at 570 nm. […] Assays were performed using a seeding density of 1,000 cells per well and compound exposure was for a total of 5 days. When shorter-term exposure was desired, medium containing cytotoxic agents was removed after 4 hours and replaced with fresh growth medium prior to 5-day incubation. For OVCAR3, CaOV3, and NCI-H2110, cells were seeded at 3,000 cells/well and incubated for 5 days with ADC.
Screening of selected ADCs was also performed in CaOV3 (human ovarian carcinoma, FR^med(++), NCI-H2110 (human non-small cell lung carcinoma, FR^med(++), and/or OVCAR3 (human ovarian carcinoma, FR^med(++)) cells. The results of this screening are provided in Table 16.

Consider MORAb009-PEG2-eribulin, for which, in data set [1], the “SEC-HPLC Analysis % Aggr.” value is recorded as 1.15%, the “SEC-HPLC Analysis % Frag.” value is 1.74% and the “SEC-HPLC Analysis % Monomer” value is 97.11%. In addition, the “DAR (HIC-HPLC)” value in “DAR analysis by HIC-HPLC” turned out to be 4.30. Further, the IC50 in the data set on NCI-H2110 cells is 50 nM.
In the case of MORAb009-PEG4-eribulin, in data set [1], the “SEC-HPLC Analysis % Aggr.” value came out at 1.03%, the “SEC-HPLC Analysis % Frag.” value was 1.84% and the “SEC-HPLC Analysis % Monomer” value is 97.13%. Also, the “DAR (HIC-HPLC)” value in the data set “DAR analysis by HIC-HPLC” amounted to 4.57. For the same substance, the IC50 in the data set on NCI-H2110 cells was 31.6 nM.
In turn, “MORAb-003-maleimido-PEG2-Val-Cit-pAB-eribulin [MORAb-202]” had an IC50 in the data set with CaOV3 cells (CaOV3 cells, mean of replicate experiments, where performed) of 3.7 nM. In addition, in the data set with CaOV3 cells (Example 1), the “cytotoxicity on CaOV3 cells, in words” value was “potent cytotoxicity”. Moreover, the “body weight loss versus vehicle, in words” value in data set [2] (5 mg/kg single dose) is reported as “no significant body weight loss”. Besides, in data set [2] (setting [5]), the “Tumor Volume” value was determined as 22.9 mm^3 and the “Tumor Growth Inhibition” value is “(2.3) %”. In data set [2] (setting [6]), the “Tumor Volume” value was 4.7 mm^3 and the “Tumor Growth Inhibition” value is “(0.3) %”. In data set [2] (setting [7]), the “Tumor Volume” value came to 418.3 mm^3 and the tumor-free mice entry is “(4/6 tumor-free)”. Also, in data set [2] (5 mg/kg single dose, six mice), the “mice considered tumor-free at Day 32” value is listed as “Five of the six” and the “mice that remained tumor-free through Day 74” value was “four”. Moreover, the “anti-tumor activity, in words” value in data set [2] (5 mg/kg single i.v. dose) is recorded as “significant tumor regression”. For the same substance, in data set [3], the “cancer associated fibroblast structure by anti-α-SMA-FITC IHC, in words” value is on record as “diminish the structure of cancer associated fibroblasts” and the “tumor cell occupation by IHC with anti-human IgG antibody, in words” value is “occupies folate receptor alpha-expressing tumor cells”. Moreover, the “tumor re-growth during the study, in words” value in data set [4] (MORAb-202 5 mg/kg or eribulin 3.2 mg/kg) is listed as “no significant tumor re-growth”. Further, in data set [4] (MORAb-202 5 mg/kg or eribulin 3.2 mg/kg, single i.v. dose), the “anti-tumor activity, in words” value is listed as “significant anti-tumor activity”. In data set [4] (first week post-treatment), the “effect on body weight, in words” value is reported as “no body weight loss”.
